21 variants from the RNAGym collection of RNA variant scans (doi:10.1073/pnas.2313332121) can be followed below.

B1: TPR t1 (parent)
chain: GACCAAUCUGCCCUCAGAGCUCGAGAACAUCUUCGGAUGCAGAGGAGGCAGGCUUCGGUGGCGCGAUAGCGCCAACGUCCUCAACCUCCAAUGCAUCCCACCACAUGAUGAUGCCUGAAGAGCCUUGGUUUUUUG

In this series the parent is B1. In words: polymerase ribozyme fitness, log enrichment relative to wild type (log ratio); higher = more active; in vitro selection for triplet polymerase activity. Summed up: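 One round of in vitro selection, in triplicate, was applied to PCR-built, transcribed mutant libraries of each subunit of a heterodimeric triplet polymerase ribozyme. The steps were annealing with a biotinylated primer, partner subunit and triplets, incubation frozen at −7 °C, gel excision of extended constructs, streptavidin-bead capture and RT-PCR. Fitness is the logarithm, base 2, of genotype enrichment over wild-type enrichment from inverse-variance-weighted replicate averages of Illumina-sequenced inputs and outputs, keeping genotypes with ≥10 input reads and ≥1 read per output.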
For GACCAAUCUGCCCUCAGAGCUCGAGAACAUCUUCGGAUGCAGAGGAGGCAGGGUUCGGUGUCGCGAUAGUGCCAACGUCCUCAACCUCCAAUGCAUCCCACCACAUGAUGAUGCCUGAAGAGCCUUGGUUUUUUG [C53G G61U C70U], the “polymerase ribozyme fitness (log ratio)” value was -0.621. In the case of GACCAAUCUGCCCUCAGAGCUCGAGAACAUCUUCGGAUGCAGAGGAGGCAGGGUUCGGUGCCGCGAUAGCGCCAACGUCCUUAACCUCCAAUGCAUCCCACCACAUGAUGAUGCCUGAAAAGCCUUGGUUUUUUG [C53G G61C C82U G120A], the “polymerase ribozyme fitness (log ratio)” value worked out at 0.391. For GACCAAUCUGCCCUCAGAGCUCGAGAACAUCUUCGGAUGCAGAGGAGGCAGGGUUCGGUGGCGCGAUAGCACCAACGUCCUCAACCUCCAAUCCAUCCCACCACAUGAUGAUGCCUGAAGAGCCUUGGUUUUUUG [C53G G71A G93C], the “polymerase ribozyme fitness (log ratio)” value was -1.51. Take GACCAAUCUGCCCUCAGAGCUCGAGAACAUCUUCGGAUGCAGAGGAGGCAGGGUUCGGUGGCGCGAUAGCGCCAACGUCCUCAACCUCCAAUGCAUCCCACCACAUGAUGAUGCCUGAAGAGCAUUAGUUUUUUG [C53G C124A G127A]: the “polymerase ribozyme fitness (log ratio)” value worked out at 0.953.

For the variant GACCAAUCUGCCCUCAGAGCUCGAGAACAUCUUCGGAUGCAGAGGAGGCAGGGUUCGGUGACGCGAUAGCGCCAACGUCCUCAACCUCCAAUGCAUCCCACCACAUGAUGAUGCCUGAAGAGCCUUGGUUUUUUG [C53G G61A], the “polymerase ribozyme fitness (log ratio)” value is -1.75. As to GACCAAUCUGCCCUCAGAGCUCGAGAACAUCUUCGGAUGCAGAGGAGGCAGGGUUCGGUGGCACGAUAGCGCCAACGUCCUCAACCUCCAAUGCAUCCCACCACAUGAUGCUGCCUGAGGAGCCUUGGUUUUUUG [C53G G63A A111C A119G], the “polymerase ribozyme fitness (log ratio)” value is -1.67. As for GACCAAUCUGCCCUCAGAGCUCGAGAACAUCUUCGGAUGCAGAGGAGGCAGGGUUCGGUGGCGCGAUAGCGCCAACGUCCUCAACCUCCAAUGCAUCCCACCACAUGAUGAUGUCUGAAGAACCUUGGUUUUUUG [C53G C114U G122A], the “polymerase ribozyme fitness (log ratio)” value is -2.38. GACCAAUCUGCCCUCAGAGCUCGAGAACAUCUUCGGAUGCAGAGGAGGCAGGGUUCAGUGGCGCGAUAGCACCAACGUCCUCAACCUCCAAUGGAUCCCACCACAUGAUGAUGACUGAAGAGCCUUGGUUUUUUG [C53G G57A G71A C94G C114A]: the “polymerase ribozyme fitness (log ratio)” value was -5.83.

On to GACCAAUCUGCCCUCAGAGCUCGAGAACAUCUUCGGAUGCAGAGGAGGCAGGGUUCGGUGGCGCGAUAGCCCCAACGUCCUCAACCUCCAAUGCAUCCCACCACAUGAUGAUGCCUGAAGAGCCUUGGUUUUUUG [C53G G71C], for which the “polymerase ribozyme fitness (log ratio)” value was -0.515. Regarding GACCAAUCUGCCCUCAGAGCUCGAGAACAUCUUCGGAUGCAGAGGAGGCAGGGUUCGGUGGCGCGAUAGCACCAACGUCCUCAACCUCCAAUGCAUCCCACCACAUGAUGAUGCCUGAAGAGCCUUGGUUUUUUG [C53G G71A], the “polymerase ribozyme fitness (log ratio)” value is -1.22. With GACCAAUCUGCCCUCAGAGCUCGAGAACAUCUUCGGAUGCAGAGGAGGCAGGGUUCGGUGGCUCGAUAGCGCCAACGUCCUCAACCUCCAAUGCAUCCCACCACAUGAUGAUGCCUGAAGAACCUUGGUUUUUUG [C53G G63U G122A], the “polymerase ribozyme fitness (log ratio)” value was -1.7. In the case of GACCAAUCUGCCCUCAGAGCUCGAGAACAUCUUCGGAUGCAGAGGAGGCAGGGUUCGGUACCGCGAUAGCGCCAACGUCCUCAACCUCCACUGCAUCCCACCACAUGAUGAUGCCUGAAGAGCCUUGGUUUUUUG [C53G G60A G61C A91C] it was -3.39; in that of GACCAAUCUGCCCUCAGAGCUCGAGAACAUCUUCGGAUGCAGAGGAGGCAGGGUUCGGUGGCACGAUAGCGCCAACGUCCUCAACCUCCAAUGCAUCCCACCACAUGAUGAUGCGAGAAGAGCCUUGGUUGUUUG [C53G G63A C115G U116A U131G], -7.22. As for GACCAAUCUGCCCUCAGAGCUCGAGAACAUCUUCGGAUGCAGAGGAGGCAGGGUUCGGUGGCGCGAUAGCGCCAACGUCCUCAACCUCCAAUGCAUCCCACCACAUGAUGAUGCAUGAAGAGCCUUGGUUUUUUG [C53G C115A], the “polymerase ribozyme fitness (log ratio)” value was -0.163. Take GACCAAUCUGCCCUCAGAGCUCGAGAACAUCUUCGGAUGCAGAGGAGGCAGGGUUCGGUGGCGCGAUAGCGCCAACGUCCUCAACCUCCAAUGCAUCCCACCACAUGAUGAUGCCUGAAGAGCAUUGGUUUUUUG [C53G C124A]: the “polymerase ribozyme fitness (log ratio)” value stood at 0.714. For GACCAAUCUGCCCUCAGAGCUCGAGAACAUCUUCGGAUGCAGAGGAGGCAGGGUUCGGUGGCGCGAUAACGCCAACGCCCUCAACCUCCAAUGCAUUCCACCACAUGAUGAUGCCUGAAGAGCCUUGGUUUUUUG [C53G G69A U78C C97U], the “polymerase ribozyme fitness (log ratio)” value was -2.9. On to GACCAAUCUGCCCUCAGAGCUCGAGAACAUCUUCGGAUGCAGAGGAGGCAGGGUUCGGUGGCUCGAUAGCGCCAACGUCCUCAACCUCCAAUGCAUCCCACCACAUGAUGAUGCCUGAAGAGCCUUGGUUUUUUG [C53G G63U], for which the “polymerase ribozyme fitness (log ratio)” value is -2.05.

As for GACCAAUCUGCCCUCAGAGCUCGAGAACAUCUUCGGAUGCAGAGGAGGCAGGGUUCGGUGGCCCGAUAGCGCCAACGUCCUCAACCUCCAAUCCAUCCCACCACAUGAUGAUGCCUGAAGAGCCUUGGUUUUUUG [C53G G63C G93C], the “polymerase ribozyme fitness (log ratio)” value is -0.994. In the case of GACCAAUCUGCCCUCAGAGCUCGAGAACAUCUUCGGAUGCAGAGGAGGCAGGGUUCGGUGGCGCGAUAGCGCCAACUUCCUCAACAUCCAAUGCAUCCCACCACAUGAUGAUGCCUGAAGAGCCUUGGUUUUUUG [C53G G77U C86A] it was -1.02; in that of GACCAAUCUGCCCUCAGAGCUCGAGAACAUCUUCGGAUGCAGAGGAGGCAGGGUUCGGUGGCGCGAUAACGCCAACGUCCUCAACCUCCAAUGCAUCCCACCACAUGAUGAUGCAAGAAGAGCCUUGGUUUUUUG [C53G G69A C115A U116A], -5.69. In the case of GACCAAUCUGCCCUCAGAGCUCGAGAACAUCUUCGGAUGCAGAGGAGGCAGGGUUCGGUGGCCCGAUAGCGCCAACGUCCUCAACCUCCAAUGCAUCCCACCACAUGAUGAUGCCUGAAGAGCCUUCGUUUUUUG [C53G G63C G127C] it was -1.19.
